Laboratory results reported in the DeepSol protein solubility set.

Assay: soluble on expression in E. coli; label from the status in PepcDB or PDB records

Sequence | soluble on expression in E. coli
EIEMTQSPSSLSASVGDRVTISCRASQRINTYLNWYQHKPGKAPKLLIYAASSLQSGVPSRFSGSGYGTDFTLTISSLQPEDFASYYCQESLSASYTFGQGTKVEIKRTVAAPSVFIFPPSDEQLKSGTASVVCLLNNFYPREAKVQWKVDNALQSGNSQESVTEQDSKDSTYSLSSTLTLSKADYEKHKVYACEVTHQGLSSPVTKSFNRGEC | soluble
EITPLFFQKELATPVDNLKPYTALQMEGRDIYIREGCSNCHSQMIRPFRAETERYGHYSVAGESVWEHPFLWGSKRTGPDLARVGGRYSDDWHIAHLTDPRSVVPESNMPAYSWLNTDTLDGELTGKKLATFNFLTRNRSHKDENGNAIPLYTQAEIDGAKDAVKGKTEMSALIAYLQSLGH | not soluble
EKEKDTIAAEHKQEASVLLNLHRNKINYLIGETMARMTSLSIAIDRPVDIKKMQSILEKTFDSEPRFSGLYFLNAKGDVTASTTELKTKVNLADRSFFIKAKETKKTVISDSYSSRITGQPIFTICVPVLDSKRNVTDYLVAAIQIDYLKNLINLLSPDVYIEVVNQDGKMIFASGQASHAEDQKPVSGYLDDISWNMKVYPNPVTIEELSKSL | soluble
ELEPGAFSELYQRYRHCDAPICLYEQGRDSFEDEGRWRLILCATCGSHGTHRDCSSLRPNSKKWECNECLPA | soluble
ELNHRVKNTLATVQAIASLTVNSSTSLDSFRKSFDARLFALSQARAEWMSTELADLLAQLQDVNGGQHRITFTGDP | not soluble
ELYSALANKCCHVGCTKRSLARFC | soluble
EQHADPICNKPCKTHDDCSGAWFCQACWNSARTCGPYVG | soluble
EQLAGIDNLRDLDPTGALATKLEAIAPTVSTYDSYAGRLISEYGLLLPVEPSSRLISQTELFQIAHSIVSAHTGALNTSNSPNTVTSTLISLVSEMDNHMVSPTDIEEESAAFLAMIEDVEATSKRAPSKEVYKWRDTQVLRNELLPLVQQLKTHLADNHLMTFGEQMSLAARLAAENPQVGASQRNRYQIIMLDEYQDTGHAQRVLLKSLFAGTAVTAVGDPMQSIYGWRGATAANLERFLTDFGSNGSPATKKELTVSFRNPPEVLDLANRVSRELLGVPEDPRRPVQPLEPGPAALNGIVRLGFFPSMDEERSYVADHLAQAYEQHDGDHPFTAAVLVRKRKHSAAIALELQQRGVPVE | not soluble
ETELAFLYERDIYRLLAECDNSRNPDLGLIVRICLATGARWSEAETLTQSQVMPYKITFTNTKSKKNRTVPISDELFDMLPKKRGRLFNDAYESFENAVLRAEIELPKGQLTHVLRHTFASHFMMNGGNILVLKEILGHSTIEMTMRYAHFAPSHLESAVKFNPLSNPAQ | soluble
EVASYCDRVVAAVSSWMSTVKSTTEVSWNKLSFCDVLLKIITFGIYSPHETLAEKYSEKKLMDSFSPSLSQDKMDGEFAHANIDGISIRLCLNKGICSVFYLDGDKIQSTQLSSKEYNNLLSSLPPKQFNLGKVHTITAPVSGNFKTHKPAPEVIETAINCCTSIIPNDDYFPVKDTDFNSVWHDIYRDIRASDSNSTKIYFNNIEIPLKLIADLINELGINEFIDSKKELQMLSYNQLNKIINSNFPQQDLCFQTEKLLFTSLFQDPAFISALTSAFWQSLHITSSSVEHIYAQIMSENIENRLNFMPEQRVINNCGHIIKINAVVPKNDTAISASGGRAYEVSSSILPSHITCNGVGINKIETSYLVHAGTLPSSEGLRNAIPPESRQVSFAIISPDV | soluble
EVIAAYIEGIKKAAENGLNVSQIHSVASFFVSRLDTEVDKRLEQIGSDEALSLRGKAGVANAQRAYAVFLEAFQAADLPVGAHVQRPLWASTGVKNPDYSPTFYVSELAGPDTVNTMPESTIDAVLAADDIHGDTLSSSSDSANEIFTRISQTGIDFEDVFAVLEQEGVDKFVAAWSDLLDSMESRLK | not soluble
EVQLLESGGGLVQPGGSLRLSCAASGFTFSRYVMWWVRQAPGKGLEWVSYIWPSGGNTYYADSVKGRFTISRDNSKNTLYLQMNSLRAEDTAVYYCASSYDFWSNAFDIWGQGTMVTVSSASTKGPSVFPLAPCSRSTSESTAALGCLVKDYFPEPVTVSWNSGALTSGVHTFPAVLQSSGLYSLSSVVTVPSSSLGTKTYTCNVDHKPSNTKVDKRVES | soluble
EVVVTGMQKMDKRLFTGATQQLTADNVKLDGLPDISRGLEGRAAGVSVQNVSGTFGTAPKIRVRGATSIYGSSKPLWVVDGVIMEDAIDVGPDDLSSGDAETLISSAIAGLNSDDIESFQILKDGSATSIYGARAMAGVIVVTTKKGK | not soluble
EVVVVGYGTMKRSDLTGSVASIAAKDVEGFKTSSVAGALGGQIAGVQITSTDGTPGAGFSINIRGVGTLTGDSSPLYIVDGFEVDDIDYLSNSDIESIEVLKDASSSAIYGARAANGVVLITTKSGK | not soluble
FDNLTDRLSRTLRNISGRGRLTEDNVKDTLREVRMALLEADVALPVVREFINRVKEKAVGHEVNKSLTPGQEFVKIVRNELVAAMGEENQTLNLAAQPPAVVLMAGLQGAGKTTSVGKLGKFLREKHKKKVLVVSADVYRPAAIKQLETLAEQVGVDFFPSDVGQKPVDIVNAALKEAKLKFYDVLLVDTAGRLHVDEAMMDEIKQVHASINPVETLFVVDAMTGQDAANTAKAFNEALPLTGVVLTKVDGDARGGAALSIRHITGKPIKFLGVGEKTEALEPFHPDRIASRILGMGDVLSLIEDIESKVDRAQAEKLASKLKKGDGFDLNDFLEQLRQMKNMGGMASLMGKLPGMGQIPDNVKSQMDDKVLVRMEAIINSMTMKERAKPEIIKGSRKRRIAAGCGMQVQDVNRLLKQFDDMQRMMKKMK | soluble
FFAAITAAERRCWIASPYFVPDLDILAALKHAALRGVDVRLLVPDEADHTIPWLAAFAYFDEVREAGVRVMRYTDGFLHQKVFVVDDTIAAVGTTNLDNRSFRLNFEAMALFFDATVAGQVTAMLEHDFASSTELTRSLAAQPVFIRYGAPLARLFAPIL | not soluble

Sequence | soluble on expression in E. coli
FGDFNYNTTFTATTNKNKIIQLARDVLNPVTNTLIDLTDIQVGRFRLREGGEIGTVYANEWLKRDGDNYIDYQPGQALTTETTSPYKLGSVNPKWNLGWQHGFSYKGFNLNLLFTARIGGIAISKTQAMLDRYGVSEASADARDAGGVSLGYFKVDPKTYYDAVSNLDAYYTYSATNVRLQEARLTYTFPNKWFKGTVNNLSLSVYGTNLWMIYNKAPYDPELTASTGTFGQGYDYFMLPSQSTYGLSLKFGF | not soluble
FKAHCRRSVEGDTMLSLKAVSPTRLLKNKFYQDVFAAEQRGASVEELRELLGRGRAKQGIFEGDLHEGELEIGQAVSQISHAETVAEIMVDLVDGYKRSLAGMPTEI | not soluble
FLLPPSTACCTQLYRKPLSDKLLRKVIQVELQEADGDCHLQAFVLHLAQRSICIHPQNPSLSQWFEHQERKLHGTLPKLNFGMLRKMG | soluble
FLQNAVILGATENGLRLAEYLLEHQDIRSGVIGFIDDRIGRMPKTVANLPLLGNTSDLERLIREEKVTQVLVALPWTAENRMDYIIRELRRLPVNVLLVPDMIAFRHT | not soluble
FSKTQRWAEPGEPICVVCGRYGEYICDKTDEDVCSLECKAKHLLQVKEKEEKS | soluble
FSSALTSKDAARLADETDNIAEALRAAETEGVALQDMLQAYLPANGMVRVVNGDQKAVMTITKEKAYKDFPLSFHSGETADVRKPDGKLFAEAAVPVIWTDGQVVSLQLVERLENTEESLFLLK | not soluble
FSVEELSEILESHSIRLELQPILELETGRVGAAEGLLRINLDGTDVPTGQFVQSVEQAGLAPKLDIAVMREGINHIERLRAVCPTFSLALNLSGYSLSSAKIREELRAEFRARDLPRGSIRFEITETAPIEDIDAAKEFVQMLKDFGFHIVIDDFGAGHEPYQYLKKFDFSVLKIAGEFIEGMVTNRVDRSIVESIAQLAKDEEMETVAEFVSSKEILEAVREIGVTYAQGFHIGKSKPIDEFIATYLETNQTATWG | not soluble
FYDPLVFPSDEFDASISQVNEKINQSLAFIRKSDELLHNVNAG | soluble
GAKPERGRFLHFHSVTFWVGNAKQAASFYCSKMGFEPLAYRGLETGSREVVSHVIKQGKIVFVLSSALNPWNKEMGDHLVKHGDGVKDIAFEVEDCDYIVQKARERGAKIMREPWVEQDKFGKVKFAVLQTYGDTTHTLVEKMNYIGQFLPGYEAPAFMDPLLPKLPKCSLEMIDHIVGNQPDQEMVSASEWYLKNLQFHRFWSVDDTQVHTEYSSLRSIVVANYEESIKMPINEPAPGKKKSQIQEYVDYNGGAGVQHIALKTEDIITAIRHLRERGLEFLSVPSTYYKQLREKLKTAKIKVKENIDALEELKILVDYDEKGYLLQIFTKPVQDRPTLFLEVIQRHNHQGFGAGNFNSLFKAFEEEQNLRGNLTNMETNGVVPGMAENLYFQ | soluble
GAMAEYEIDEITFHKRLGILLTSWKNEEDGKTLFQDCDSILVTVGAHDDTNPYQKSTALHTWLLGYEFPSTLILLEKHRITILTSVNKANMLTKLAETKGAAADVNILKRTKDAEENKKLFEKIIEYIRATNKKVGVFPKDKTQGKFINEWDSIFEPVKSEFNLVDASLGLAKCLAIKDEQELANIKGASRVSVAVMSKYFVDELSTYIDQGKKITHSKFSDQMESLIDNEAFFQTKSLKLGDIDLDQLEWCYTPIIQSGGSYDLKPSAITDDRNLHGDVVLCSLGFRYKSYCSNVGRTYLFDPDSEQQKNYSFLVALQKKLFEYCRDGAVIGDIYTKILGLIRAKRPDLEPNFVRNLGAGIGIEFRESSLLVNAKNPRVLQAGMTLNLSIGFGNLINPHPKNSQSKEYALLLIDTIQITRSDPIVFTDSPKAQGDISYFFGED | soluble
GAMAGMNIKDRTSEFQQSVLSYKKRNKNFREQQRERLQEKESENFANNTT | soluble
GAMATGSRIGGGIDVPVPRHSVGVVIGRSGEMIKKIQNDAGVRIQFKQDDGTGPEKIAHIMGPPDRCEHAARIINDLLQSLRSGPPGPPGGPGMPPGGRGRGRGQG | soluble
GAMDPMIIRGIRGARINNEIFNLGLKFQILNADVVATKKHVLHAINQAKTKKPIAKSFWMEILVRASGQRQIHEAIKIIGAKDGNVCLICEDEETFRKIYELIGGEIDDSVLEINEDKERLIREIFKIRGFGNVVERVLEKIALIELKKE | soluble
GAMDPMKAKRVQAKIEMEFPSEDVAKVVYEAVLYEHLSVPYRRSEIDFKLEGKKIILDIKATDSSALRGTVNSYLRWIKAAIDVIEV | soluble
GAMERKANYAVDAYFREALRVSEPKAPKAPRPPKQPIVQDFQFFPPRLFELLDQEIYYFRKTVGYKVPKNTELGSDATKVQREEQRKIDEAEPLTEEEIQEKENLLSQGFTAWTKRDFNQFIKANEKYGRDDIDNIAKDVEGKTPEEVIEYNAVFWERCTELQDIERIMGQIERGEGKIQRRLSIKKALDQKMSRYRAPFHQLRLQYGNNKGKNYTEIEDRFLVCMLHKLGFDKENVYEELRAAIRASPQFRFDWFIKSRTALELQRRCNTLITLIERENIELEEKERAEKKKKAPKGSVSAGS | soluble
GAMGDPGLVSAYGAGLEGGVTGNPAEFVVNTSNAGAGALSVTIDGPSKVKMDCQECPEGYRVTYTPMAPGSYLISIKYGGPYHIGGSPFKAKVTGPRLV | soluble
